These results are taken from paper PMC8861512, “Characterization and Secretory Expression of a Thermostable Tannase from Aureobasidium melanogenum T9: Potential Candidate for Food and Agricultural Industries” (Frontiers in Bioengineering and Biotechnology, 2022).

Common to all, as to assay: purified protein
Holding throughout (assay type): biochemical, Aureobasidium melanogenum
What all share (settings): standard assay: 100 mM Na2HPO4-citric acid buffer, pH 5.0, 40 °C

Substrate in data set [1]: O=C(O[C@@H]1Cc2c(O)cc(O)cc2O[C@@H]1c1cc(O)c(O)c(O)c1)c1cc(O)c(O)c(O)c1
Substrate in data set [2]: O=C(O[C@@H]1Cc2c(O)cc(O)cc2O[C@@H]1c1ccc(O)c(O)c1)c1cc(O)c(O)c(O)c1
Substrate in data set [3]: COC(=O)c1cc(O)c(O)c(O)c1
Substrate in data set [4]: O=C(O[C@@H]1Cc2c(O)cc(O)cc2O[C@H]1c1cc(O)c(O)c(O)c1)c1cc(O)c(O)c(O)c1
Substrate in data set [5]: CCCOC(=O)c1cc(O)c(O)c(O)c1

B1: TanA (Aureobasidium melanogenum) (protein)
chain: SKDCSKATFQKVIPSNSTFNYVTKVAEGGTFTDAEANANATGLPEGCAVSVKVPTPGNSSYNMAIYMPNKWNSRIITTGNGGYGGFTNWQDLGQYSHYGFSAITTDTGHFNPNVLDSTFALNKGSLENWGWRAMHGSVLVGKALSAAYYGQTHKFSYYSGCSTGGRQGLKEMQVSPDAFDGVFVGAPAWWIPHLSIWTSQATLANLPQNSDHHISAALANVINDEILKQCDPQDGVTDNVIMNPAGCVFNPLTLLCEGAANASACITRPQLDTLYKALHDWTYFDGTLIFPVPSLGTPLVAYIGDSPIPNPMGTGAIEHMLLNTTEPYDWSTFNESVVRLSEAIDPGHGTPDNYDLSTFQKRGGKVIHWHGEADPIIPFRSSSYFYSQVASSVAPHDIEMDSFYKFFPIAGMSHCSGSQYSPWYIAGATQPLTNVSHGVPGFDDAQHNGLLALMRWVENGTAPEQLVATKYNNDDPTKGVYRQRPLCPFPKQPIYTHGNVDSASSWKCS
notes: codon-optimised, signal peptide (first 19 of 528 residues) removed; 6xHis tag kept; secreted by Yarrowia lipolytica, Ni-IDA purified
Usually Km stands for the concentration of substrate that gives half-maximal velocity. As for B1, the Km amounted to 2520 µM in data set [1]; 2130 µM in data set [2]; 2810 µM in data set [3]; 1860 µM in data set [4]; 1710 µM in data set [5].
